Assay [1] has as its target human IL12Rβ1 (human) (UniProt P42701). The experiment in a line: FACS on Baf3 cells transfected with human IL12Rβ1, mouse control mAb.
Assay [2] has as its target cynomolgus IL12Rβ1 (cynomolgus). The assay is described as follows: FACS on Baf3 cells transfected with cyno IL12Rβ1, mouse control mAb.

Our source for the EC50 values is patent US20120034231A1.

What is called EC50 is the midpoint of the concentration-response curve. A lower EC50 goes with greater potency.

With “Mab839 (mouse monoclonal anti-human IL12Rβ1 control antibody, R&D Systems, Cat# MAB839)”, the EC50 is 2.35 nM in assay [1] and 1.47 nM in assay [2].
